Results from patent US6864054 (INSTITUTE OF MOLECULAR AND CELL BIOLOGY, dated 2005).

B2: GST-16E6 (other)
chain: MFQDPQERPRKLPQLCTELQTTIHDIILECVYCKQQLLRREVYDFAFRDLCIVYRDGNPYAVCDKCLKFYSKYSEYRHYCYSLYGTTLEQQYNKPLCDLLIRCINCQKPLCPEEKQRHLDKKQRFHNIRGRWTGRCMSCCRSSRTRRETQL
B7: MBP-CBP (residues 1808-1852) fusion protein (other)
chain: GCKRKTNGGCPVCKQLIALCCYHAKHCQENKCPVPFCLNIKHKLR
notes: Bacterially expressed

Tests used:
GST (control) = biological target: T1, GST (control) (UniProt P08515 1-218 = GST); test: GST micro-affinity column, IVT radiolabelled E6
T1 construct: also called control GST column; GST alone

[1] = biological target: T2, GST-CBP I (residues 461-662) (UniProt P45481 461-662); test: GST micro-affinity column, IVT radiolabelled E6
T2 construct: range 461-662; also called GST-CBP I (461-662)
T2 sequence: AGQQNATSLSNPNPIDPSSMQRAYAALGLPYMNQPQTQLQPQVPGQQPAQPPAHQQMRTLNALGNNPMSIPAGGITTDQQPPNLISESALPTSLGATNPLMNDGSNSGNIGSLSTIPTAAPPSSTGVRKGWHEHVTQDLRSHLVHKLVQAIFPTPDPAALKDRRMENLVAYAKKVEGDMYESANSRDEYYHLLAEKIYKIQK

[2] = biological target: T3, GST-CBP II (residues 1621-1877) (UniProt P45481 1621-1877); test: GST micro-affinity column, IVT E6
T3 construct: also called GST-CBP II domain
T3 sequence: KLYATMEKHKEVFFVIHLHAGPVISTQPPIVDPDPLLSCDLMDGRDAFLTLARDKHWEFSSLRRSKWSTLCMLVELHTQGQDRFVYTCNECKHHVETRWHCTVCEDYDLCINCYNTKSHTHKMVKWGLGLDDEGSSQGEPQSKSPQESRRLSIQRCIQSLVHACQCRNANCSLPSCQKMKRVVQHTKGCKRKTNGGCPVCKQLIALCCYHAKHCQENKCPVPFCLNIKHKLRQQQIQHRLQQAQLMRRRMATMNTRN

[3] = biological target: B7; test: MBP micro-affinity column, purified recombinant proteins, western blot
[4] = biological target: T4, in vitro translated 35S-labeled CBP (1621-1877) (UniProt P45481 1621-1877); test: GST-E6 micro-affinity column, IVT CBP II
T4 construct: also called in vitro translated CBP II
T4 sequence (looked up): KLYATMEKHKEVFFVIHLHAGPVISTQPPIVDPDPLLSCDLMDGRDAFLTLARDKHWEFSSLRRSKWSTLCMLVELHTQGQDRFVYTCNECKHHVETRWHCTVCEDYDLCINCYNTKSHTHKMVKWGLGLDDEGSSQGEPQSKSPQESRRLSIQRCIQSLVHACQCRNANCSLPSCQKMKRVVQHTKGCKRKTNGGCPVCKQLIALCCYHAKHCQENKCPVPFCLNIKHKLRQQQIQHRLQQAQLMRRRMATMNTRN

GST-E6AP = biological target: T5, GST-E6AP (UniProt Q05086 24-875); test: GST-E6AP micro-affinity column, IVT E6
T5 sequence: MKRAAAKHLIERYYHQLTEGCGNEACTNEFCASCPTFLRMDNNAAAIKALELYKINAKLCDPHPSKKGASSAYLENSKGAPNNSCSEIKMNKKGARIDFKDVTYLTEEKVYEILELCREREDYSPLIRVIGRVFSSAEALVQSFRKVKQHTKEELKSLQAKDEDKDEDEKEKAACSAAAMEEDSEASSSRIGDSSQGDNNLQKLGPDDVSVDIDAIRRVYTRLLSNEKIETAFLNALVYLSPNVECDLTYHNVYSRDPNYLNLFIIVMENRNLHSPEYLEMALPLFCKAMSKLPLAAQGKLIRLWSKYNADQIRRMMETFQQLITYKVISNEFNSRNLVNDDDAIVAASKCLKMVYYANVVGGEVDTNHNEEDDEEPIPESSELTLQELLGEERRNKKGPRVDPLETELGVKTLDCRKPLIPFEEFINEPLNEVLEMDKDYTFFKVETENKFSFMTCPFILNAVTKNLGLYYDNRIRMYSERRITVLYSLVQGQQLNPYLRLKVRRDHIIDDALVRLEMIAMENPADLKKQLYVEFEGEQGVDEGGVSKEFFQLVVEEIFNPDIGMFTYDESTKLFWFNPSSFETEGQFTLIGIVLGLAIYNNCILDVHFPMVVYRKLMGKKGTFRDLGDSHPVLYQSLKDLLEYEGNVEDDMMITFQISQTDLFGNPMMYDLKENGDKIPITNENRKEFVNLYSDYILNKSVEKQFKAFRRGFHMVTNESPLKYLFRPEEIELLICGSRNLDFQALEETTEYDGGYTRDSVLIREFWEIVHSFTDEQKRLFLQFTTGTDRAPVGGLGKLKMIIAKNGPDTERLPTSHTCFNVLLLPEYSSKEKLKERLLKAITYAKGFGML

[5] = biological target: T4, in vitro translated 35S-labeled CBP …; test: GST-E6 fragment micro-affinity column
[6] = biological target: in vitro translated 35S-methionine labelled p53 (wild type) (UniProt P04637 1-393); test: GST micro-column pull-down, IVT protein
[7] = biological target: T6, in vitro translated radiolabeled TFIIB (UniProt Q00403 1-316); test: GST micro-column pull-down, IVT protein
T6 sequence (looked up): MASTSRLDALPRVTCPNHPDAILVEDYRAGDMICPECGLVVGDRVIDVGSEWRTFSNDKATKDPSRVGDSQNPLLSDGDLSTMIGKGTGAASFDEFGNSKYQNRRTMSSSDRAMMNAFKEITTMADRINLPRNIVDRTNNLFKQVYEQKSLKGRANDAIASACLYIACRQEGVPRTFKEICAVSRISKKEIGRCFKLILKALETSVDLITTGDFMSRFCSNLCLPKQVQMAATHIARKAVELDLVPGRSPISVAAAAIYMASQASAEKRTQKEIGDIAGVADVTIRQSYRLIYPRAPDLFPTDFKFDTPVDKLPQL

GST-16E6 = biological target: B2; test: GST micro-affinity column, purified recombinant proteins, western blot
[8] = biological target: T7, GST-CBP fusion protein (CBP residues not stated) (UniProt P45481 1621-1877); test: GST-CBP micro-affinity column, IVT E6
T7 sequence: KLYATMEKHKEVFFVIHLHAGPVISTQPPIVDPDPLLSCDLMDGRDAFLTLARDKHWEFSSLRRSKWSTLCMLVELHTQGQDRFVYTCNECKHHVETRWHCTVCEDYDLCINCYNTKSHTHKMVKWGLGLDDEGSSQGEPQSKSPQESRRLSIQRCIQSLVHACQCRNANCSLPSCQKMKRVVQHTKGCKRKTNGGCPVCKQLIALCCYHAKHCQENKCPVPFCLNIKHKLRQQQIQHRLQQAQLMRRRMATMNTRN

Chain of in vitro translated 35S-methionine labelled p53 (wild type) (P04637 whole entry): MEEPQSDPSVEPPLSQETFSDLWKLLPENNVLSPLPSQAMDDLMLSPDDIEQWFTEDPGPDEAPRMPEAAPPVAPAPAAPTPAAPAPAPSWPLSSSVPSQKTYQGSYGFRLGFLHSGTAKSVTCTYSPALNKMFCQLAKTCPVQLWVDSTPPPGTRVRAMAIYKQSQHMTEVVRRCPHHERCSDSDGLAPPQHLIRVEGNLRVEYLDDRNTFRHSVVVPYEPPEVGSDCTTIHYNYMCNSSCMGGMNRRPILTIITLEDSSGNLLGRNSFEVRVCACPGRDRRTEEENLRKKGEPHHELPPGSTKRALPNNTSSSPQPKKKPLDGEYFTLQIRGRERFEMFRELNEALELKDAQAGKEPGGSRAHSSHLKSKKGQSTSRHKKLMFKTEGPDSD
T1 sequence (P08515 whole entry): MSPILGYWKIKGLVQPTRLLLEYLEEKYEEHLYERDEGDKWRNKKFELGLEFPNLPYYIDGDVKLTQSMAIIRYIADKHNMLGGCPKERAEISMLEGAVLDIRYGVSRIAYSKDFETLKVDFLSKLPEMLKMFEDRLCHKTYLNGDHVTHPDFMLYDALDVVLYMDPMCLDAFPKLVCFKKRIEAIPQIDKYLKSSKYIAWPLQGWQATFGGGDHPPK

B1: in vitro translated and radiolabeled HPV-16 E6 (other)
chain: MFQDPQERPRKLPQLCTELQTTIHDIILECVYCKQQLLRREVYDFAFRDLCIVYRDGNPYAVCDKCLKFYSKYSEYRHYCYSLYGTTLEQQYNKPLCDLLIRCINCQKPLCPEEKQRHLDKKQRFHNIRGRWTGRCMSCCRSSRTRRETQL
GST (control)
  binding result: no binding
[1]
  binding result: no binding
[2]
  binding result: binds

## B2
[3]
  binding result: binds
[4]
  binding result: binds

B3: in vitro translated HPV-16 E6 L50G protein (other)
chain: MFQDPQERPRKLPQLCTELQTTIHDIILECVYCKQQLLRREVYDFAFRDGCIVYRDGNPYAVCDKCLKFYSKYSEYRHYCYSLYGTTLEQQYNKPLCDLLIRCINCQKPLCPEEKQRHLDKKQRFHNIRGRWTGRCMSCCRSSRTRRETQL
GST-E6AP
  binding result: no binding

B4: GST-16E6 C-terminal half (85-151) (other)
chain: GTTLEQQYNKPLCDLLIRCINCQKPLCPEEKQRHLDKKQRFHNIRGRWTGRCMSCCRSSRTRRETQL
[5]
  binding result: binds

## LIRCINCQKPLCPEEKQRHLDKKQRFHNIRGRWTGRCMSCCRSSRTRR (other) [GST-16E6 (amino acids 100-147)]
[5]
  binding result: binds

B5: GST-16E6 N-terminal half (1-84) (other)
chain: MFQDPQERPRKLPQLCTELQTTIHDIILECVYCKQQLLRREVYDFAFRDLCIVYRDGNPYAVCDKCLKFYSKYSEYRHYCYSLY
[5]
  binding result: no binding

B6: GST-Mdm2 (466-484) (other, human, UniProt Q00987 466-484, looked up, not shown: a dimerising Fc or GST)
chain: KKLKKRNKPCPVCRQPIQM
notes: also called wild type Mdm2 TRAM; Mdm2 TRAM
[6]
  binding result: binds
[7]
  binding result: binds

## B7
GST-16E6
  binding result: binds

B8: GST-6E6 (other)
chain: MESANASTSATTIDQLCKTFNLSMHTLQINCVFCKNALTTAEIYSYAYKHLKVLFRGGYPYAACACCLEFHGKINQYRHFDYAGYATTVEEETKQDILDVLIRCYLCHKPLCEVEKVKHILTKARFIKLNCTWKGRCLHCWTTCMEDMLP
notes: mature
[4]
  binding result: no binding

## GCKRKTNGGCPVCKQLIAL (other, UniProt P45481 1808-1826, looked up, not shown: a dimerising Fc or GST, also called CBP TRAM) [GST-CBP (1808-1826)]
[7]
  binding result: binds

B9: GST-16E6 without C-terminal residues 148-151 (other)
chain: MFQDPQERPRKLPQLCTELQTTIHDIILECVYCKQQLLRREVYDFAFRDLCIVYRDGNPYAVCDKCLKFYSKYSEYRHYCYSLYGTTLEQQYNKPLCDLLIRCINCQKPLCPEEKQRHLDKKQRFHNIRGRWTGRCMSCCRSSRTRR
[5]
  binding result: binds

B10: GST-11E6 (other)
chain: MESKDASTSATSIDQLCKTFNLSLHTLQIQCVFCRNALTTAEIYAYAYKNLKVVWRDNFPFAACACCLELQGKINQYRHFNYAAYAPTVEEETNEDILKVLIRCYLCHKPLCEIEKLKHILGKARFIKLNNQWKGRCLHCWTTCMEDLLP
[4]
  binding result: no binding

B11: in vitro translated HPV-11 E6 protein (other)
chain: MESKDASTSATSIDQLCKTFNLSLHTLQIQCVFCRNALTTAEIYAYAYKNLKVVWRDNFPFAACACCLELQGKINQYRHFNYAAYAPTVEEETNEDILKVLIRCYLCHKPLCEIEKLKHILGKARFIKLNNQWKGRCLHCWTTCMEDLLP
notes: mature
[8]
  binding result: no binding
GST-E6AP
  binding result: no binding
